Results on one substance are retold here after PMC9138216.

This test has as its target Bacillus pumilus bilirubin oxidase (Bacillus pumilus). Kind of test: crystal structure; X-ray, 3.5 Å; crystals grown at 20 °C in 0.1 M sodium citrate pH 5.5, 20% PEG 3000; dimer interface analysed with PDBePISA.

Consider “Bacillus pumilus bilirubin oxidase (enzyme)”, for which the stoichiometry N was 2.

Usually stoichiometry N stands for the number of molecules, sites or subunits per partner or assembly.
